From patent US12065505B2, “Antibodies and antigen binding peptides for factor XIa inhibitors and uses thereof” (Bristol-Myers Squibb Company, priority 2021, dated 2024) come the findings set out here.

Data set [1] can be described thus: SPR (Biacore) on chip coated with BSA conjugated to COMPOUND 2. In kind it is binding. Conditions: Fab over COMPOUND 2-BSA surface; for Ka / koff, dissociation rate constant: apparent; for Kd: apparent affinity. As to the method:
The binding of the first round affinity matured antibody Fab fragments to conjugated versions of Compound A was examined by SPR (Biacore™) using a CM5 S-series sensor chip (Cytiva, Cat. No. 29149603) coated with BSA previously conjugated to COMPOUND 2, COMPOUND 3 or COMPOUND 1. The immobilization level was 150-250 RUs. The running buffer was 1×PBS (phosphate buffered saline, pH 7.4) with 0.05% Tween 20. […] The antibody Fab fragment at a concentration of between 200-0.8 nM was injected over the BSA-compound coated surface for 2 minutes at a flow rate of 30 uL/min. The antibody Fab fragment was then allowed to dissociate for 15 minutes. The chip surface was regenerated after each cycle with a 1 minute pulse of 10 mM Glycine, pH 2, and a 1 minute pulse of 50 mM NaOH. All experiments were run on the same equipment and analyzed with the same software as described before. Apparent affinities were determined for rank ordering only since dissociation rates were too slow to be measured by Biacore. Comparative experiments with selected mAbs were also conducted in a similar fashion (see FIG. 11).
(In general: Surface plasmon resonance follows binding to a sensor surface in real time, without labels.)

Data set [2] can be described thus: Thermal stability by Differential Scanning Calorimetry. The data set is classed as physicochemical. Conditions: DSC; Fab 1 mg/ml. As to the method:
Thermal stability analysis was performed with UNchained Labs UNcle™/Tagg analysis with Fabs at a concentration of 20 uM with or without Compound A at a concentration of 50 uM (or control compound). Capillaries were scanned from 25 to 90° C. at 0.5° C./min. In addition, select Fabs were also analyzed by Differential Scanning calorimetry analysis using the Malvern MicroCal VP-Capillary DSC. Samples were buffer matched and loaded with Fabs at a concentration of 10 uM with or without Compound A at a concentration of 15 uM (or control compound). Scan temperature range was 15-110° C. at a rate of 60° C./Hr (Filter period: 16 sec, Gain: None). Sample analysis was using software provided by the manufacturer for both the UNcle and the Malvern Capillary DSC. FIG. 15 and Table 14 below show representative DSC results.
A general note: DSC measures the heat that a sample takes up or gives off during a temperature scan.

The nature of data set [3]: Kinetic Exclusion Assay (KinExA) solution affinity. The data set is classed as binding. Conditions: for KinExA Ka: complex association rate, 200 pM Fab and 400 pM Compound A; for Kd: solution affinity for Compound A, Fab 100, 200, 300 pM, equilibrated 24-72 hours. As to the method:
The solution affinity of the antibody Fab fragments disclosed herein for Compound A was measured using a Kinetic Exclusion Assay (KinExA). […] The relative unbound concentration of 26D5 affinity matured antibody Fab fragment was measured by capture on a streptavidin coated bead with COMPOUND 5 followed by detection with a fluorescently labeled antibody that recognizes the human IgG Fab. Kinetic analysis to determine the complex association rate was measured with the same assay format except that a single tube of the mixture was prepared (200 pM Fab and 400 pM Compound A) and time points were removed immediately (no equilibration). Two Fabs, 26D5-75229-343-A10-Fab-SHORT and 26D5-75616-348-F10-Fab-SHORT, were identified as the top two Fabs by DSC thermal stability and KinExA analysis. Antibody Fab fragment 26D5-75616-348-F10-Fab-SHORT (SEQ ID NO: 106 and SEQ ID NO: 164; see Table 3) was selected for X-ray crystallography as described below and in vivo studies as described in Example 12.

B1: 9C8-VGSKE-Fab-LONG: antibody Fab fragment; VH SEQ ID NO: 78, VL SEQ ID NO: 96; sequence in Table 3 (antibody, V domains shown)
VH: QVQLQESGPGLVKPSETLSLTCAVSGYSISSGYYWGWIRQPPGKGLEWIGSIYHSGNTYYSPSLQSRVTISVDTSKNQFSLKLSSVTAADTAVYYCARGGDFDILTGYYKGWFEPWGQGTLVTVSS
VL: AIQLTQSPSSLSASVGDRVTITCRASQGISSALAWYQQKPGKAPKLLIYDASSLESGVPSRFSGSGSGTDFTLTISSLQPEDFATYYCQQFNSYPQTFGQGTKVEIK
For B1, in data set [1] (25° C.), the “Ka” value was 400000 M⁻¹ s⁻¹; the “koff, dissociation rate constant” value stood at 0.00087 s⁻¹; the Kd is 2.1 nM.

B2: 26D5-GVR-H-Fab-LONG: antibody Fab fragment; VH SEQ ID NO: 81, VL SEQ ID NO: 98; sequence in Table 3 (antibody, V domains shown)
VH: EVQLVESGGGLIQPGGSLRLSCAASGFTVSRNYMSWVRQAPGKGLEWVSFIYSGGRTYYADSVKGRFTISRDNSKNTLYLQMNSLRAEDTAVYYCARGGFGGGDYWGQGTLVTVSS
VL: DIQMTQSPSSVSASVGDRVTITCRASQGISSWLAWYQHKPGKAPKLLIYAASSLQSGVPSRFSGSGSGTDFTLTISSLQPEDFATYYCQQANSFPLTFGGGTKVEIK
Regarding B2, in data set [1] (37° C.), the “Ka” value is 280000 M⁻¹ s⁻¹; the “koff, dissociation rate constant” value was found to be 0.001 s⁻¹; the Kd worked out at 3.5 nM.

B3: 26D5-75768-348-A10-Fab-SHORT: antibody Fab fragment; VH SEQ ID NO: 56, VL SEQ ID NO: 89; sequence in Table 3 (antibody, V domains shown)
VH: EVQLVESGGGLIQPGGSLRLSCAASGFTVSSNAVSIVRQAPGKGLEWVAYIYPGGRTYYADSVKGRFTISRDNSKNTLYLQMNSLRAEDTAVYYCTIGGFGGGDYWGQGTLVTVSS
VL: DIQMTQSPSSVSASVGDRVTITCRASQGISSNNQWYQQKPGKAPKLLIYYASSLQSGVPSRFSGSGSGTDFTLTISSLQPEDFATYYCQQGNEFPLTFGGGTKVEIK
In the case of B3, in data set [2], the “Tm1 (° C.)” value was found to be 66.3 °C and the “Tm2 (° C.)” value stood at 74.1 °C.

B4: 26D5-295-B08-Fab-LONG: antibody Fab fragment; VH SEQ ID NO: 60, VL SEQ ID NO: 88; sequence in Table 3 (antibody, V domains shown)
VH: EVQLVESGGGLIQPGGSLRLSCAASGFTVSSNAMSWVRQAPGKGLEWVSFIYPGGRTYYADSVKGRFTISRDNSKNTLYLQMNSLRAEDTAVYYCARAGFGGGDYWGQGTLVTVSS
VL: DIQMTQSPSSVSASVGDRVTITCRASQGISSNLAWYQQKPGKAPKLLIYAASSLQSGVPSRFSGSGSGTDFTLTISSLQPEDFATYYCQQANSFPLTFGGGTKVEIK
B4: in data set [1] (37° C.), the “Ka” value was 280000 M⁻¹ s⁻¹; the “koff, dissociation rate constant” value was 0.00022 s⁻¹; the Kd came to 0.8 nM.

B5: 26D5-75202-343-A09-Fab-SHORT: antibody Fab fragment; VH SEQ ID NO: 54, VL SEQ ID NO: 86; sequence in Table 3 (antibody, V domains shown)
VH: EVQLVESGGGLIQPGGSLRLSCAASGFTVSSNAMSWVRQAPGKGLEWVSYIYPGGRTYYADSVKGRFTISRDNSKNTLYLQMNSLRAEDTAVYYCARAGFGGGDYWGQGTLVTVSS
VL: DIQMTQSPSSVSASVGDRVTITCRASQGIYSNLAWYQQKPGKAPKLLIYAASSLQSGVPSRFSGSGSGTDFTLTISSLQPEDFATYYCQQANEFPLTFGGGTKVEIK
Turning to B5, in data set [2], the “Tm1 (° C.)” value is 75.3 °C. In data set [3], the “KinExA Ka” value turned out to be 150000 M⁻¹ s⁻¹ and the Kd was 0.019 nM.

B6: 26D5-295-C08-Fab-LONG: antibody Fab fragment; VH SEQ ID NO: 62, VL SEQ ID NO: 88; sequence in Table 3 (antibody, V domains shown)
VH: EVQLVESGGGLIQPGGSLRLSCAASGFQVSSNAMSWVRQAPGKGLEWVSFIYPGGRTYYADSVKGRFTISRDNSKNTLYLQMNSLRAEDTAVYYCARGGFGGGDYWGQGTLVTVSS
VL: DIQMTQSPSSVSASVGDRVTITCRASQGISSNLAWYQQKPGKAPKLLIYAASSLQSGVPSRFSGSGSGTDFTLTISSLQPEDFATYYCQQANSFPLTFGGGTKVEIK
For the molecule B6, in data set [1] (37° C.), the “Ka” value was 280000 M⁻¹ s⁻¹; the “koff, dissociation rate constant” value was found to be 8.5e-05 s⁻¹; the Kd worked out at 0.3 nM.

B7: 26D5-295-C08-Fab-SHORT: antibody Fab fragment; VH SEQ ID NO: 62, VL SEQ ID NO: 88; sequence in Table 3 (antibody, V domains shown)
VH: EVQLVESGGGLIQPGGSLRLSCAASGFQVSSNAMSWVRQAPGKGLEWVSFIYPGGRTYYADSVKGRFTISRDNSKNTLYLQMNSLRAEDTAVYYCARGGFGGGDYWGQGTLVTVSS
VL: DIQMTQSPSSVSASVGDRVTITCRASQGISSNLAWYQQKPGKAPKLLIYAASSLQSGVPSRFSGSGSGTDFTLTISSLQPEDFATYYCQQANSFPLTFGGGTKVEIK
For the molecule B7, the “Tm1 (° C.)” value in data set [2] was 75.3 °C.

B8: 26D5-75214-343-F06-Fab-SHORT: antibody Fab fragment; VH SEQ ID NO: 53, VL SEQ ID NO: 85; sequence in Table 3 (antibody, V domains shown)
VH: EVQLVESGGGLIQPGGSLRLSCAASGFTVSSNAMSWVRQAPGKGLEWVSFIYPGGRTYYADSVKGRFTISRDNSKNTLYLQMNSLRAEDTAVYYCARAGFGGPDYWGQGTLVTVSS
VL: DIQMTQSPSSVSASVGDRVTITCRASQGISSNLAWYQQKPGKAPKLLIYAASSLQSGVPSRFSGSGSGTDFTLTISSLQPEDFATYYCQQANEFPLTFGGGTKVEIK
In the case of B8, the “Tm1 (° C.)” value in data set [2] was found to be 75.5 °C. Also, in data set [3], the “KinExA Ka” value is 600000 M⁻¹ s⁻¹ and the Kd was determined as 0.015 nM.

B9: 26D5-75203-343-B09-Fab-SHORT: antibody Fab fragment; VH SEQ ID NO: 54, VL SEQ ID NO: 87; sequence in Table 3 (antibody, V domains shown)
VH: EVQLVESGGGLIQPGGSLRLSCAASGFTVSSNAMSWVRQAPGKGLEWVSYIYPGGRTYYADSVKGRFTISRDNSKNTLYLQMNSLRAEDTAVYYCARAGFGGGDYWGQGTLVTVSS
VL: DIQMTQSPSSVSASVGDRVTITCRASQGISSNLAWYQQKPGKAPKLLIYAASTLQSGVPSRFSGSGSGTDFTLTISSLQPEDFATYYCQQANEFPLTFGGGTKVEIK
Regarding B9, the “Tm1 (° C.)” value in data set [2] came out at 76.6 °C. Besides, in data set [3], the “KinExA Ka” value is 14000 M⁻¹ s⁻¹ and the Kd was determined as 0.01 nM.

B10: 26D5-75229-343-A10-Fab-SHORT: antibody Fab fragment; VH SEQ ID NO: 52, VL SEQ ID NO: 84; sequence in Table 3 (antibody, V domains shown)
VH: EVQLVESGGGLIQPGGSLRLSCAASGFTVSSNAMSWVRQAPGKGLEWVSYIYPGGRTYYADSVKGRFTISRDNSKNTLYLQMNSLRAEDTAVYYCARAGFGGPDYWGQGTLVTVSS
VL: DIQMTQSPSSVSASVGDRVTITCRASQGISSNLAWYQQKPGKAPKLLIYAASSLQSGVPSRFSGSGSGTDFTLTISSLQPEDFATYYCQQANQFPLTFGGGTKVEIK
On to B10, for which the “Tm1 (° C.)” value in data set [2] was found to be 74.9 °C. Also, the “KinExA Ka” value in data set [3] came to 50000 M⁻¹ s⁻¹.
